Assay results: publication PMC9610768 (2022)

B1: GFP-Rng2CHD CHD (protein)
chain: MDVNVGLSRLQSQAGAPVGTKGSNTRLAAKQRETLQAYDYLCRVDEAKKWIEECLGTDLGPTSTFEQSLRNGVVLALLVQKFQPDKLIKIFYSNELQFRHSDNINKFLDFIHGIGLPEIFHFELTDIYEGKNLPKVIYCIHALSYFLSMQDLAPPLIKSDENLSFTDEDVSIIVRRLRQSNVILPNFKA
modifications: GFP fused to Rng2CHD N-terminus, phalloidin-stabilized actin filaments
B2: Rng2CHD CHD (protein)
chain: B1 chain
modifications: phalloidin-stabilized actin filaments

Biological target: actin filament (skeletal muscle alpha-actin) (Oryctolagus cuniculus, UniProt P68135)
Assay: co-sedimentation

Binder	Kd [nM]
B1	3400
B2	920
